Test results: publication PMC6947424, “New Targeted Gold Nanorods for the Treatment of Glioblastoma by Photodynamic Therapy” (Journal of Clinical Medicine, 2019)
Residues, ends and D or L forms follow the SMILES beside them. *: point of attachment. Pyropheophorbide(a) = C=Cc1c(C)c2cc3nc(c4c5[nH]c(cc6nc(cc1[nH]2)C(C)=C6CC)c(C)c5C(=O)C4)[C@@H](CCC(=O)*)[C@@H]3C; Hexanoyl(6-maleimido) = O=C1C=CC(=O)N1CCCCCC(=O)*

Experiments:
[1] = UV-vis absorption; assay type: physicochemical; conditions: ethanol, Soret band
Method: (§1) The setup and the protocol to evaluate the photophysical characterizations including the absorption, fluorescence, and singlet oxygen emission spectra in addition to the fluorescence and singlet oxygen lifetimes have been previously described by our team. The absorption spectra were recorded on a UV-3600 UV–vis double beam spectrophotometer (Shimadzu, Marne La Vallée, France) in the wavelength range of 200-800 nm. The measurements were performed on the molecules dispersed in ethanol in quartz cuvettes with an optical path of 10 mm. The fluorescence spectra were recorded on a Horiba Jobin Yvon Fluorolog-3 (FL3-222) spectrofluorimeter equipped with a 450W xenon lamp, a thermostated cell compartment (25 °C), a R928 (Hamamatsu, Massy, France) UV–vis photomultiplier and a liquid nitrogen cooled InGaAs infrared detector (DSS-16A020L Electro-Optical System Inc., Phoenixville, PA, USA). The excitation spectrometer used is a SPEX double grating monochromator (1200 grooves per mm blazed at 330 nm). The fluorescence was measured using the UV–vis detector through a SPEX double grating monochromator (600 grooves per mm blazed at 500 nm). The singlet oxygen production was measured using the IR detector through a SPEX double grating monochromator (600 grooves per mm blazed at 1 μm).
The photophysical properties at the different synthetic stages of the hybrid AuNRs@PEG-MI-K(Pyro)DKPPR-OH, including the peptide derivatives as intermediates, were studied and compared to that of free Pyro. These properties include the UV-vis absorption, the florescence emission (quantum yield (Φf) and lifetime (τf)) and the ^1O2 production (quantum yield (ΦΔ) and lifetime (τΔ)). To determine these properties, the optical density (OD) of the Soret band of the Pyro component (412 nm) was adjusted at about 0.2. Controls, such as TPP dissolved in toluene, as a standard for fluorescence emission, and RB dissolved in ethanol, as a standard for ^1O2 production, were used. Ethanol was chosen to dissolve the studied molecules since it is a convenient solvent for the detection of fluorescence and ^1O2 emission. […]

[2] = Fluorescence emission (quantum yield and lifetime); assay type: physicochemical; conditions: ethanol; for τf (fluorescence lifetime): TCSPC, single exponential fit; for Φf (fluorescence quantum yield): excitation 412 nm, TPP in toluene as standard, 25 °C
Method: as §1
Fluorescence quantum yields (Φf) were determined using a tetraphenyl porphyrin (TPP) solution as the fluorescence standard (Φf = 0.11 in toluene, taking into account solvent refractive index and absorption efficiencies. For the direct determination of ^1O2 quantum yield (ΦΔ), excitation was performed with a Xe-arc, the light was separated in a SPEX 1680, 0.22 µm double monochromator. Detection at 1270 nm was carried out through a PTI S/N 1565 monochromator and the emission was monitored by a liquid nitrogen cooled Ge-detector (EO-817L, North Coast Scientific Co, OH, USA). Rose Bengal (RB) was chosen as a reference solution because of its high ^1O2 quantum yield in EtOH (ΦΔ = 0.68). The absorbance value at the excitation wavelengths (412 nm) of both the reference and the sample solutions were set to approximately 0.2 by dilution. The samples were all prepared in ethanol.
The quantum yield of fluorescence is determined by the equation (1):(1) Φf=Φf0×If/If0×[…]×(n/n0)^2 where Φf and Φf0, If and If0, DO and DO0, n and n0 are the quantum yields, intensities, optical densities and refraction indices of the sample and reference, respectively.
Fluorescence lifetimes were measured by Time-Correlated Single Photon Counting (TCSPC) using for excitation a pulsed laser diode LDH-P-C-405 coupled with a PDL 800-D driver (both from PicoQuant GmbH, Berlin, Germany) emitting at 408 nm (FWHM < 70 ps, 1 MHz) and an SPCM-AQR-15 avalanche photodiode (EG & G, Vaudreuil, Canada) coupled with a 650 nm (±10 nm) interference long-wave pass filter as the detection system. The acquisition system was a PicoHarp 300 module with a PHR-800 four-channel router (both from PicoQuant GmbH, Berlin, Germany). Fluorescence decays were recorded using the single photon counting method (four optical faced quartz cells for pure products in ethanol). Data were collected, and up to 1000 counts were accumulated in the maximum channel and analyzed using Fluofit TCSPC software (PicoQuant GmbH, Berlin, Germany) based on iterative reconvolution using a Levensberg-Marquandt algorithm. Singlet oxygen lifetime measurements have been performed on a TEMPRO-01 spectrophotometer (Horiba Jobin Yvon, Palaiseau, France). The apparatus was composed of a pulsed diode excitation source SpectraLED-415 emitting at 415 nm, a cuvette compartment, a Seya–Namioka type emission monochromator (600–2000 nm), and an H10330-45 near-infrared photomultiplier tube with a thermoelectric cooler (Hamamatsu, Massy, France) as the detection system. The system was monitored by a single photon counting controller FluoroHub-B and the software DataStation and DAS6 (Horiba Jobin Yvon, Palaiseau, France). […]

SMILES | λmax [1] [nm] | τf (fluorescence lifetime) [2] [ns] | Φf (fluorescence quantum yield) [2]
C=Cc1c(C)c2cc3nc(c4c5[nH]c(cc6nc(cc1[nH]2)C(C)=C6CC)c(C)c5C(=O)C4)[C@@H](CCC(=O)NCCCC[C@H](NC(=O)CCCCCN1C(=O)C=CC1=O)C(=O)N[C@@H](CC(=O)O)C(=O)N[C@@H](CCCCN)C(=O)N1CCC[C@H]1C(=O)N1CCC[C@H]1C(=O)N[C@@H](CCCNC(=N)N)C(=O)O)[C@@H]3C [MI-K(Pyro)DKPPR-OH] ({Hexanoyl(6-maleimido)}-K(Pyropheophorbide(a))DKPPR-OH) | 412 | 6.5 | 0.29
C=Cc1c(C)c2cc3nc(c4c5[nH]c(cc6nc(cc1[nH]2)C(C)=C6CC)c(C)c5C(=O)C4)[C@@H](CCC(=O)O)[C@@H]3C [Pyro, pyropheophorbide-a, reference compound] | 412 | 6.8 | 0.38
